Values quoted from earlier work, collected in publication PMC5709052.
Read-outs that look alike come from different tables or passages of the source.

Legend:
[1] = target: CYP102A1 reductase domain (BMR) reductase domain (Priestia megaterium) (UniProt P14779)
[2] = target: CYP102A1 reductase domain (BMR) reductase domain (Priestia megaterium) (UniProt P14779); assay: absorption spectroscopy titration
[3] = target: CYP102A1 reductase domain (BMR) reductase domain (Priestia megaterium) (UniProt P14779); assay: absorption spectroscopy titration; remark: listed apart in the source
[4] = target: CYP102A1 reductase domain (BMR) reductase domain (Priestia megaterium) (UniProt P14779); remark: listed apart in the source

UniProt P14779, sequence (P14779 473-1049): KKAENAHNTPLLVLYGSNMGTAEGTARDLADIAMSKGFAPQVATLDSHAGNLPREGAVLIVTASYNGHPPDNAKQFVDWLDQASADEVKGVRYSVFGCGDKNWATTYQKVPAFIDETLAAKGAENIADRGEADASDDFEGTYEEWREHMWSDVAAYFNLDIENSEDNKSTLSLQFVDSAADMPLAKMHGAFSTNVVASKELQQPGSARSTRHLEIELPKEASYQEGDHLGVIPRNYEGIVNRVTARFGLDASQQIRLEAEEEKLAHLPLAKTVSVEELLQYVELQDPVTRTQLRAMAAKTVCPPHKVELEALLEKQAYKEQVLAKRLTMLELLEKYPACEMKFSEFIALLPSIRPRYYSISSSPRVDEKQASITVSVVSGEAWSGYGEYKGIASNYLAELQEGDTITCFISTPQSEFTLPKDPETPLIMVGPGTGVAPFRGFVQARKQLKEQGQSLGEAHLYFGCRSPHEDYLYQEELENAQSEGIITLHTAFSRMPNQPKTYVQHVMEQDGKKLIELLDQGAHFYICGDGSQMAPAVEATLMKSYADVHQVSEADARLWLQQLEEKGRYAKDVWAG

Kd [1] | Kd [2] | Kd [3] | Kd [4] | Substance
480 nM | 100 nM | 140 nM | – | CYP3A4 (from UniProt P08684)
– | – | – | 370 nM | CYP2B4 (from UniProt P00178)
